In US20220227882A1 (TRUSTEES OF TUFTS COLLEGE, published 2022):
Positions count from the first letter of the chain named.

What was measured:
[1] = biological target: T1, R482A (Homo sapiens, UniProt P78325); experiment: high-throughput flow cytometry, HEK293 cells with mutant ADAM8, high stringency; range in parentheses; closed box
T1 construct: expressed on HEK293 cells; also called human ADAM8 point mutant R482A
T1 sequence (ADAM8, looked up): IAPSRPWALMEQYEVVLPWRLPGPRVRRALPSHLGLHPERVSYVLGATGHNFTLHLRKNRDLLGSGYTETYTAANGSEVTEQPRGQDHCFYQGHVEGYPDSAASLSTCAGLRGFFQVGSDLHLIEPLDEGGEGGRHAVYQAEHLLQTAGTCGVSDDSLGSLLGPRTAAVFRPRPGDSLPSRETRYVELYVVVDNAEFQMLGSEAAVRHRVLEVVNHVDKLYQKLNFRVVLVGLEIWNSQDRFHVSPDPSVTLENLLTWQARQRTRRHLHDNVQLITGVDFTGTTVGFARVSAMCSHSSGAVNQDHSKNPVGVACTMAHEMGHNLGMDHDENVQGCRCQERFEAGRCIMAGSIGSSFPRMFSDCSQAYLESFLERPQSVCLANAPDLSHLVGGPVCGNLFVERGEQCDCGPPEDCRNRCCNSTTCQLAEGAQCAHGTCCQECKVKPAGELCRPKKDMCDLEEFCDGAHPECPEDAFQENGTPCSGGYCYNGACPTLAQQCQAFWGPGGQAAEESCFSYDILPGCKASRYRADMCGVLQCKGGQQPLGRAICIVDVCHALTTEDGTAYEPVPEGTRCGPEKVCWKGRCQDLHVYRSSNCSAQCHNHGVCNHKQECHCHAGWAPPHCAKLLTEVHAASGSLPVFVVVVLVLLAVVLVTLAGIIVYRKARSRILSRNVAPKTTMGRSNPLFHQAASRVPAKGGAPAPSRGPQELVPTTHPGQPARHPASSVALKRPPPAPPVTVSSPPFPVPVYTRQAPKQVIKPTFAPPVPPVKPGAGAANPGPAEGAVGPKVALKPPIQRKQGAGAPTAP
Description: (§1) A variety of experimental parameters were optimized for high-throughput flow cytometry including blocking buffer, and primary and secondary antibody concentrations, to identify the optimal conditions for screening. Through these studies ADP2 and ADP13 were determined to be high affinity binding antibodies.
(§2) Thus, for these studies antigen-binding fragments (Fabs) of ADP2 and ADP13, which bind with lower affinity than the full antibody, were generated. In addition, higher binding stringency conditions were tested, such as increased pH, salinity, and temperature, and/or increased washing, to weaken binding sufficiently to allow identification of critical binding residues in flow cytometry. The final experimental flow cytometry conditions were: primary antibody incubation with ADP2 Fab (0.50 μg/ml), ADP13 Fab (5.00 μg/ml) and Control Ab (0.16 μg/ml) for 60 minutes in flow cytometry buffer containing 10% goat serum in PBS (Ca²⁺ and Mg²⁺ free). […] Samples were washed three times after primary antibody incubation and twice after secondary antibody incubation with PBS (Ca²⁺ and Mg′ free). Next, HEK293 cells expressing WT or mutated ADAM8 proteins or EV DNA were incubated with ADP2 or ADP13 Fabs or Control Ab at their optimal concentrations. Fab binding was detected using Alexa Fluor 488-conjugated secondary antibodies and mean cellular fluorescence determined using the Intellicyt iQue flow cytometry platform. […] This counter-screen strategy facilitates the exclusion of mutants that are locally misfolded or that have an expression defect. Binding of each test Fab to each mutant clone in the alanine scanning library was determined, in duplicate, by high-throughput flow cytometry.

[2] = biological target: T2, G445A (Homo sapiens, UniProt P78325); experiment: as above
T2 construct: expressed on HEK293 cells; also called human ADAM8 point mutant G445A
T2 sequence (ADAM8, looked up): T1 sequence (ADAM8, looked up) with G429A, A466R
Description: as §1, §2

Binding Reactivity (% WT) [1]: 8.3 % WT
Binding Reactivity (% WT) [2]: 9.7 % WT
B1: ADP13 Fab (Fab, V domains shown)
VH: EVQLQQSGPEMVKPGTSVKISCKASGYTFTDYYINWVKQSHGKSLEWIGDISPNIGGATYNPKFKGKAILTVDKSARTAYMELRSLTSEDSAVYCCTRGGSSYPYFYAMDYWGQGTSVTVSS
VL: DIVMSQSPSSLAVSVGEKVTMSCKSSQSLLYSSNQKKYLAWYQQKPGQSPKLLIYWASTRESGVPDRFTGSGSGTDFTLTISSVKAEDLAVYYCQQFYSYPYTFGGGTKLEINR
